Source: patent US20230227514A1, “BETA-ARRESTIN COMPOSITIONS AND ASSOCIATED METHODS” (Duke University, priority 2020, published 2023)

Molecular target: T1, RanGAP1 (Homo sapiens, UniProt P46060)
T1 construct: endogenous in cells; host or cells: HEK-293T / HEK-293
Experiment: Confocal colocalization with endogenous RanGAP1 at the nuclear envelope
Format: cell-based
Conditions: HEK-293 cells with or without β2AR agonist stimulation
Procedure: Immunostaining and confocal microscopy. […] Twenty-four hours post-transfection, cells were serum-starved for 4 h, and either left untreated or treated with respective agonists for the indicated times in the Figure descriptions. After stimulation, cells were fixed with 5% formaldehyde diluted in phosphate-buffered saline (PBS), permeabilized with 0.1% Triton in PBS containing 2% bovine serum albumin for 20 min and incubated at room temperature with appropriate primary antibody. The next day, cells were washed three times with PBS and incubated with Alexa594 conjugated secondary antibody for 1 h, followed by repeated washes using PBS. Confocal images were acquired using Zeiss LSM510 laser-scanning microscope using multitrack sequential with excitation (488 and 568 nm) and emission (BP 505-550 nm and LP 585 nm) filter sets. Images (1024×1024 pixels) were collected using either a 63× or 100× oil immersion lens. Images were processed for Figure presentation using Adobe Photoshop software, and any increase or decrease of brightness/contrast was applied to the entire image. The nuclear rim localization of YFP-βarrestin2-SUMO1 is readily visualized in cells with low to moderate expression of YFP-protein. In cells with high expression, this localization is present, and can be discerned by enlarging sections of the nuclear rim. […]

T1 sequence (P46060 2-587 limits assumed): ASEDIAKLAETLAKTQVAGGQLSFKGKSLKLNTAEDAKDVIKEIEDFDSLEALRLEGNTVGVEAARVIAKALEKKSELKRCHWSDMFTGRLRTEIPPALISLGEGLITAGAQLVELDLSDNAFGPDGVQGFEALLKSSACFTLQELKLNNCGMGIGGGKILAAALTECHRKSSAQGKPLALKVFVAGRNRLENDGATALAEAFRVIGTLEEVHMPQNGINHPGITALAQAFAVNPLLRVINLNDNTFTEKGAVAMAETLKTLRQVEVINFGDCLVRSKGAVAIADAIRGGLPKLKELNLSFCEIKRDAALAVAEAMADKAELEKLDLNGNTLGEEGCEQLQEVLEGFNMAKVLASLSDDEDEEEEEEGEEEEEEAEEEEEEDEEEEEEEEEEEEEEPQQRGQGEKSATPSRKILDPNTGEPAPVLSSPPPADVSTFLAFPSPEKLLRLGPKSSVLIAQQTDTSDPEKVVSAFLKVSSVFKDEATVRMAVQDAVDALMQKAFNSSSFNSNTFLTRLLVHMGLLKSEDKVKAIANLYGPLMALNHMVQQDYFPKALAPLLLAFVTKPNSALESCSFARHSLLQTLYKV
T1 sequence (P63165 2-97 partner limits assumed): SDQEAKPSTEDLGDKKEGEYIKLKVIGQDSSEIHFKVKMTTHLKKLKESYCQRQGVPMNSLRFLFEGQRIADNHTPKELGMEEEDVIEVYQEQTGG

## βarrestin2-SUMO1: rat βarrestin2 polypeptide fused to human SUMO1 (SEQ ID NO:1); used YFP- or Flag-tagged
  colocalization with endogenous RanGAP1 at the nuclear envelope: dramatic increase in colocalization
